According to patent US20240270826A1 (NATIONAL RESEARCH COUNCIL OF CANADA, published 2024):

Assays:
[1] = target: T1, SARS-CoV-2 S1 (aa16-685) (Wuhan) (SARS-CoV-2 Wuhan, UniProt P0DTC2 16-685); test: SPR single-cycle kinetics, VHH over immobilized S1 [cont.]
T1 construct: NRC; FLAG, 6xHis tags

[2] = target: Human SARS-CoV-2_Wuhan S (SmT1) (SARS-CoV-2 (Wuhan), UniProt P0DTC2 14-1208); test: tandem SPR, immobilized S, orientation 1: VHH alone
[3] = target: T2, SARS-CoV-2 S on CHO-S cells (SARS-CoV-2, UniProt P0DTC2 14-1273); test: flow cytometry, CHO-S cells
T2 construct: whole, on cells

[4] = target: T3, SARS-CoV-2 S2 (aa686-1208) (Wuhan) (SARS-CoV-2 Wuhan, UniProt P0DTC2 686-1208); test: ELISA
T3 construct: NRC; FLAG, 6xHis tags

[5] = target: T4, SARS-CoV-2 S1-NTD (aa16-305) (SARS-CoV-2 Wuhan, UniProt P0DTC2 16-305); test: ELISA
SARS-CoV spike (S) = SARS-CoV spike (S) (SARS-CoV, UniProt P59594 14-1195); test: ELISA
RBD (aa319-541) (Wuhan) [6] = target: T5, RBD (aa319-541) (Wuhan) (SARS-CoV-2 (Wuhan), UniProt P0DTC2 319-541); test: SPR, RBD over captured VHH-Fc
RBD_SARS-CoV (aa306-527) = RBD_SARS-CoV (aa306-527) (SARS-CoV, UniProt P59594 306-527); test: SPR, RBD over captured VHH-Fc
RBD (aa319-541) (Wuhan) [7] = target: T5, RBD (aa319-541) (Wuhan); test: SPR, RBD over captured VHH-Fc (per Table 11 footnote)
[8] = target: T3, SARS-CoV-2 S2 (aa686-1208) (Wuhan); test: SPR single-cycle kinetics, VHH over immobilized S2 [cont.]
[9] = target: T6, ACE2-Fc (human ACE2 aa18-740 fused to human IgG1 Fc) (human, UniProt Q9BYF1 18-740); test: ELISA
T6 construct: range 18-740

[10] = target: SARS-CoV-2 RBD (aa319-541) (Wuhan), monomeric (SARS-CoV-2 Wuhan, UniProt P0DTC2 319-541); test: SPR, monomeric RBD over captured VHH-Fc
[11] = target: T3, SARS-CoV-2 S2 (aa686-1208) (Wuhan); test: SPR; 'nd' read as spanning the three S1 columns, the dashes as the S2 block
[12] = target: T7, SARS-CoV-2 spike trimer S (Wuhan, SmT1) (SARS-CoV-2 Wuhan); test: ELISA, coated antigen, apparent EC50
T7 construct: extracellular domain

[13] = target: T1, SARS-CoV-2 S1 (aa16-685) (Wuhan); test: ELISA, coated antigen, apparent EC50
[14] = target: T4, SARS-CoV-2 S1-NTD (aa16-305); test: ELISA, coated antigen

T6 sequence (Q9BYF1 18-740 limits assumed): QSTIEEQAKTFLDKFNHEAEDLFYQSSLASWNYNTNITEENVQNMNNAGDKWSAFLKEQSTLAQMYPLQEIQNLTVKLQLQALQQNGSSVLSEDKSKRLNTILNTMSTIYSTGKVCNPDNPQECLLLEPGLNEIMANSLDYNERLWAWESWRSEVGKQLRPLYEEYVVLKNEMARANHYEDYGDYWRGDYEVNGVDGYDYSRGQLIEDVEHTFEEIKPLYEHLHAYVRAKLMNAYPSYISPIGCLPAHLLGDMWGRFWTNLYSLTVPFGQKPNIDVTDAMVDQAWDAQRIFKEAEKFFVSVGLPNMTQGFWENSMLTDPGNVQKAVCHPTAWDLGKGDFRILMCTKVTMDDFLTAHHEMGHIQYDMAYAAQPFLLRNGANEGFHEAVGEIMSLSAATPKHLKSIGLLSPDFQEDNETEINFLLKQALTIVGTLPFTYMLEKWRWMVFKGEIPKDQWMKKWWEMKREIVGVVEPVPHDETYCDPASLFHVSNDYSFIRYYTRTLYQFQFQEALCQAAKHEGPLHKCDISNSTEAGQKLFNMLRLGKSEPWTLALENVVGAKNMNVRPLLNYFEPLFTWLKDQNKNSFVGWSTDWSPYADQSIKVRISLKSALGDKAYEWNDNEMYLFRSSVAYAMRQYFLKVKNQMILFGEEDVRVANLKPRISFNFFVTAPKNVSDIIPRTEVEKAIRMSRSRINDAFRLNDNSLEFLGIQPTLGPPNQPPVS

B1: NRCoV2-S2A4 VHH (VHH)
VHH: QVQLVQSGGGLVQAGGSLRLSCAVSGSPFRSNVMEWYRQAPGKQRELVASISTGGSRTYTDSVKGRFTISRDNAKNEAFLQMNSLKPEDTAVYYCHAAARDSHGIYLLDTWGQGTQVTVSS
B1 was tested, and the binding result [1] was “no binding (tested: 40 nM)” and the “End 1st inj (RU)” value [2] was 11.6 RU.

B2: NRCoV2-MRed05 VHH-Fc (Fc fusion)
chain: EVQLVESGGGLVQPGGSLRLSCAASGFTLDYYAIGWFRQAPGKEREGVSCISSSDGSTLYADSVKGRFTISRDNAKNTVYLQMNSLKPEDTAVYYCATGPQAYYSGSYYFQCPQAGMDYWGKGTQVTVSS
With B2 the Bmax [3] was 17300, the EC50 [3] was 0.5 nM and the binding result [4] was “no binding (tested: 13 nM)”. The binding result [5] was “no binding (tested: 13 nM)”, the binding result (SARS-CoV spike (S)) was “no binding (tested: 13 nM)” and the Kd (RBD (aa319-541) (Wuhan) [6]) was 0.905 nM. For the same binder, the koff (RBD (aa319-541) (Wuhan) [6]) was 0.000509 s⁻¹, the kon (RBD (aa319-541) (Wuhan) [6]) was 562000 M⁻¹ s⁻¹ and the binding result (RBD_SARS-CoV (aa306-527)) was “no binding”. The Kd (RBD (aa319-541) (Wuhan) [7]) was 0.91 nM.

B3: NRCoV2-07 VHH (VHH)
VHH: QVQLVQSGGGLVQPGGSLRLSCAASGVTLDYYAIGWFRQAPGKEREAVSCISSNGRRNHYVASVRGRFTISRDNAKSTVYLQMNSLKPEDTAVYYCAAVQDVHGDNYYCTSPNEYNVWGQGTQVTVSS
For B3, the binding result [8] was “no binding (tested: 20 nM)” and the “End 1st inj (RU)” value [2] was 19.1 RU.

B4: Human CoV-HKU1 S (other)
chain: AVIGDFNCTNSFINDYNKTIPRISEDVVDVSLGLGTYYVLNRVYLNTTLLFTGYFPKSGANFRDLALKGSIYLSTLWYKPPFLSDFNNGIFSKVKNTKLYVNNTLYSEFSTIVIGSVFVNTSYTIVVQPHNGILEITACQYTMCEYPHTVCKSKGSIRNESWHIDSSEPLCLFKKNFTYNVSADWLYFHFYQERGVFYAYYADVGMPTTFLFSLYLGTILSHYYVMPLTCNAISSNTDNETLEYWVTPLSRRQYLLNFDEHGVITNAVDCSSSFLSEIQCKTQSFAPNTGVYDLSGFTVKPVATVYRRIPNLPDCDIDNWLNNVSVPSPLNWERRIFSNCNFNLSTLLRLVHVDSFSCNNLDKSKIFGSCFNSITVDKFAIPNRRRDDLQLGSSGFLQSSNYKIDISSSSCQLYYSLPLVNVTINNFNPSSWNRRYGFGSFNLSSYDVVYSDHCFSVNSDFCPCADPSVVNSCAKSKPPSAICPAGTKYRHCDLDTTLYVKNWCRCSCLPDPISTYSPNTCPQKKVVVGIGEHCPGLGINEEKCGTQLNHSSCFCSPDAFLGWSFDSCISNNRCNIFSNFIFNGINSGTTCSNDLLYSNTEISTGVCVNYDLYGITGQGIFKEVSAAYYNNWQNLLYDSNGNIIGFKDFLTNKTYTILPCYSGRVSAAFYQNSSSPALLYRNLKCSYVLNNISFISQPFYFDSYLGCVLNAVNLTSYSVSSCDLRMGSGFCIDYALPSSRRKRRGISSPYRFVTFEPFNVSFVNDSVETVGGLFEIQIPTNFTIAGHEEFIQTSSPKVTIDCSAFVCSNYAACHDLLSEYGTFCDNINSILNEVNDLLDITQLQVANALMQGVTLSSNLNTNLHSDVDNIDFKSLLGCLGSQCGSSSRSLLEDLLFNKVKLSDVGFVEAYNNCTGGSEIRDLLCVQSFNGIKVLPPILSETQISGYTTAATVAAMFPPWSAAAGVPFSLNVQYRINGLGVTMDVLNKNQKLIANAFNKALLSIQNGFTATNSALAKIQSVVNANAQALNSLLQQLFNKFGAISSSLQEILSRLDNLEAQVQIDRLINGRLTALNAYVSQQLSDITLIKAGASRAIEKVNECVKSQSPRINFCGNGNHILSLVQNAPYGLLFIHFSYKPTSFKTVLVSPGLCLSGDRGIAPKQGYFIKQNDSWMFTGSSYYYPEPISDKNVVFMNSCSVNFTKAPFIYLNNSIPNLSDFEAELSLWFKNHTSIAPNLTFNSHINATFLDLYYEMNVIQESIKSLNSSFINLKEIGTYEMYVKWP
notes: Sino Biological; 6xHis
B4: no binding (tested: 13 nM) [9].

B5: NRCoV2-12 VHH-Fc (Fc fusion)
chain: EVQLQQSGGGLVQAGGSLRLSCAASGRTFRNYVMGWFRQAPQAPGKDHEFVAAISWGGTEIYYADSVKGRFTISRDNAKNTVYLQMNSLKPEDTAVYYCAADRGLSYYYTRTTEYNYWGQGTQVTVSS
notes: bivalent
For B5, the Kd [10] was 0.0486 nM, the koff [10] was 3.69e-05 s⁻¹ and the kon [10] was 760000 M⁻¹ s⁻¹. B5: no binding [11].

B6: NRCoV2-02 VHH-Fc (Fc fusion)
chain: EVQLVESGGGLVQAGGSLRLSCAASGFTFSNYAMNWVRQAPGKGLEWVSGISGRGDDTRYADSVKGRFTISRDNAKNTLFLQMRSLRPEDTGVYRCTKGPDLYYFGSGYSDRGQGTQVTVSS
notes: bivalent
With B6 the EC50 [12] was 0.1 nM, the EC50 [13] was 0.11 nM and the binding result [14] was “no binding”.
